# Test results: IntAct's records for PubMed 26601939
# B1: Syndecan-2 (Rattus norvegicus (Rat)), P34900 (parent)
# chain: MQRAWILLTLGLMACVSAETRAELTSDKDMYLDSSSIEEASGLYPIDDDDYSSASGSGAYEDKGSPDLTTSQLIPRISLTSAAPEVETMTLKTQSITPTQTESPEETDKKEFEISEAEEKQDPAVKSTDVYTEKHSDNLFKRTEVLAAVIAGGVIGFLFAIFLILLLVYRMRKKDEGSYDLGERKPSSAAYQKAPTKEFYA
# B2: Syndecan-4 (Rattus norvegicus (Rat)), P34901 (parent)
# chain: MAPVCLFAPLLLLLLGGFPVAPGESIRETEVIDPQDLLEGRYFSGALPDDEDAGGLEQDSDFELSGSGDLDDTEEPRTFPEVISPLVPLDNHIPENAQPGIRVPSEPKELEENEVIPKRVPSDVGDDDVSNKVSMSSTSQGSNIFERTEVLAALIVGGVVGILFAVFLILLLVYRMKKKDEGSYDLGKKPIYKKAPTNEFYA
# partner: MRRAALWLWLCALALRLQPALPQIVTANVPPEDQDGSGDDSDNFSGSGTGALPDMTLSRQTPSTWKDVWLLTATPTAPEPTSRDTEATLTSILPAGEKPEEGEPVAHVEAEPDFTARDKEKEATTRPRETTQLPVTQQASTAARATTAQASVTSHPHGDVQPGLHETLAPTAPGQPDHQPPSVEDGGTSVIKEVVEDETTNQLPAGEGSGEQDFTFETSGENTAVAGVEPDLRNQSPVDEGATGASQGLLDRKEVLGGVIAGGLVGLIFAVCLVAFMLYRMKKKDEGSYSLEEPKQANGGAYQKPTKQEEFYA
# B3: Syndecan-2 (Rattus norvegicus (Rat)), P34900 (parent)
# chain: B1 chain
# partner: B2 chain
# B4: Syndecan-4 (Rattus norvegicus (Rat)), P34901 (parent)
# chain: B2 chain
# partner: B1 chain
# B5: Syndecan-1 (Rattus norvegicus (Rat)), P26260 (parent)
# chain: B2 partner
# partner: B1 chain
# B6: Syndecan-4 (Rattus norvegicus (Rat)), P34901 (parent)
# chain: B2 chain
# B7: Syndecan-2 (Rattus norvegicus (Rat)), P34900 (parent)
# chain: B1 chain
# partner: B2 partner
# Variants of: B1
# Settings: with sdc3_rat Sdc3, P33671
# Chain of sdc3_rat Sdc3, P33671 (P33671 whole entry): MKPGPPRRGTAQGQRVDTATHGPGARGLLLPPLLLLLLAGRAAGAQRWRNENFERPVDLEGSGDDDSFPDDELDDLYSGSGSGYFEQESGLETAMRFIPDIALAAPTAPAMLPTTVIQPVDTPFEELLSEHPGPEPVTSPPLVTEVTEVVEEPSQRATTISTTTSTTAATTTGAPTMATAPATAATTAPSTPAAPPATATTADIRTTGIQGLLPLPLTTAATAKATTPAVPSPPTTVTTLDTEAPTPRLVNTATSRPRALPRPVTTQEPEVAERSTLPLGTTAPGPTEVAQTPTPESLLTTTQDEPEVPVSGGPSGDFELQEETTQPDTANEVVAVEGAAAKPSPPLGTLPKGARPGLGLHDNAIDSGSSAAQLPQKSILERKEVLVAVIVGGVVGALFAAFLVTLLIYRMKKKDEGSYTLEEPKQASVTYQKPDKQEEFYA
row,effect of a mutation on the interaction,Variant
1,decreasing interaction strength,MQRAWILLTLGLMACVSAETRAELTSDKDMYLDSSSIEEASGLYPIDDDDYSSASGSGAYEDKGSPDLTTSQLIPRISLTSAAPEVETMTLKTQSITPTQTESPEETDKKEFEISEAEEKQDPAVKSTDVYTEKHSDNLFKRTEVLAAVIAGGVIGFLYAIFLILLLVYRMRKKDEGSYDLGERKPSSAAYQKAPTKEFYA [F159Y]

# Variants of: B2
# Settings: with sdc1_rat Sdc1, P26260
row,effect of a mutation on the interaction,Variant
1,decreasing interaction strength,MAPVCLFAPLLLLLLGGFPVAPGESIRETEVIDPQDLLEGRYFSGALPDDEDAGGLEQDSDFELSGSGDLDDTEEPRTFPEVISPLVPLDNHIPENAQPGIRVPSEPKELEENEVIPKRVPSDVGDDDVSNKVSMSSTSQGSNIFERTEVLAALIVGGVVGILYAVFLILLLVYRMKKKDEGSYDLGKKPIYKKAPTNEFYA [F164Y]

# Variants of: B3
# Settings: with sdc4_rat Sdc4, P34901
row,effect of a mutation on the interaction,Variant
1,disrupting interaction strength,MQRAWILLTLGLMACVSAETRAELTSDKDMYLDSSSIEEASGLYPIDDDDYSSASGSGAYEDKGSPDLTTSQLIPRISLTSAAPEVETMTLKTQSITPTQTESPEETDKKEFEISEAEEKQDPAVKSTDVYTEKHSDNLFKRTEVLAAVIAGGVIGYLFAIFLILLLVYRMRKKDEGSYDLGERKPSSAAYQKAPTKEFYA [F157Y]
2,decreasing interaction strength,MQRAWILLTLGLMACVSAETRAELTSDKDMYLDSSSIEEASGLYPIDDDDYSSASGSGAYEDKGSPDLTTSQLIPRISLTSAAPEVETMTLKTQSITPTQTESPEETDKKEFEISEAEEKQDPAVKSTDVYTEKHSDNLFKRTEVLAAVIAGGVIGFLYAIFLILLLVYRMRKKDEGSYDLGERKPSSAAYQKAPTKEFYA [F159Y]
3,with no effect,MQRAWILLTLGLMACVSAETRAELTSDKDMYLDSSSIEEASGLYPIDDDDYSSASGSGAYEDKGSPDLTTSQLIPRISLTSAAPEVETMTLKTQSITPTQTESPEETDKKEFEISEAEEKQDPAVKSTDVYTEKHSDNLFKRTEVLAAVIAGGVIGFLFAIYLILLLVYRMRKKDEGSYDLGERKPSSAAYQKAPTKEFYA [F162Y]

# Variants of: B3
# Settings: with sdc4_rat Sdc4, P34901
# Remark: another data set of the same source
row,effect of a mutation on the interaction,Variant
1,decreasing interaction,MQRAWILLTLGLMACVSAETRAELTSDKDMYLDSSSIEEASGLYPIDDDDYSSASGSGAYEDKGSPDLTTSQLIPRISLTSAAPEVETMTLKTQSITPTQTESPEETDKKEFEISEAEEKQDPAVKSTDVYTEKHSDNLFKRTEVLAAVIAGGVIGFLYAIFLILLLVYRMRKKDEGSYDLGERKPSSAAYQKAPTKEFYA [F159Y]

# Variants of: B3
# Settings: with sdc4_rat Sdc4, P34901
# Remark: another data set of the same source
row,effect of a mutation on the interaction,Variant
1,disrupting interaction strength,MQRAWILLTLGLMACVSAETRAELTSDKDMYLDSSSIEEASGLYPIDDDDYSSASGSGAYEDKGSPDLTTSQLIPRISLTSAAPEVETMTLKTQSITPTQTESPEETDKKEFEISEAEEKQDPAVKSTDVYTEKHSDNLFKRTEVLAAVIAGGVIGFLYAIFLILLLVYRMRKKDEGSYDLGERKPSSAAYQKAPTKEFYA [F159Y]

# Variants of: B4
# Settings: with sdc2_rat Sdc2, P34900
row,effect of a mutation on the interaction,Variant
1,decreasing interaction strength,MAPVCLFAPLLLLLLGGFPVAPGESIRETEVIDPQDLLEGRYFSGALPDDEDAGGLEQDSDFELSGSGDLDDTEEPRTFPEVISPLVPLDNHIPENAQPGIRVPSEPKELEENEVIPKRVPSDVGDDDVSNKVSMSSTSQGSNIFERTEVLAALIVGGVVGILYAVFLILLLVYRMKKKDEGSYDLGKKPIYKKAPTNEFYA [F164Y]

# Variants of: B5
# Settings: with sdc2_rat Sdc2, P34900
row,effect of a mutation on the interaction,Variant
1,disrupting interaction strength,MRRAALWLWLCALALRLQPALPQIVTANVPPEDQDGSGDDSDNFSGSGTGALPDMTLSRQTPSTWKDVWLLTATPTAPEPTSRDTEATLTSILPAGEKPEEGEPVAHVEAEPDFTARDKEKEATTRPRETTQLPVTQQASTAARATTAQASVTSHPHGDVQPGLHETLAPTAPGQPDHQPPSVEDGGTSVIKEVVEDETTNQLPAGEGSGEQDFTFETSGENTAVAGVEPDLRNQSPVDEGATGASQGLLDRKEVLGGVIAGGLVGLIYAVCLVAFMLYRMKKKDEGSYSLEEPKQANGGAYQKPTKQEEFYA [F269Y]
2,with no effect,MRRAALWLWLCALALRLQPALPQIVTANVPPEDQDGSGDDSDNFSGSGTGALPDMTLSRQTPSTWKDVWLLTATPTAPEPTSRDTEATLTSILPAGEKPEEGEPVAHVEAEPDFTARDKEKEATTRPRETTQLPVTQQASTAARATTAQASVTSHPHGDVQPGLHETLAPTAPGQPDHQPPSVEDGGTSVIKEVVEDETTNQLPAGEGSGEQDFTFETSGENTAVAGVEPDLRNQSPVDEGATGASQGLLDRKEVLGGVIAGGLVGLIFAVFLVAFMLYRMKKKDEGSYSLEEPKQANGGAYQKPTKQEEFYA [C272F]
3,disrupting interaction strength,MRRAALWLWLCALALRLQPALPQIVTANVPPEDQDGSGDDSDNFSGSGTGALPDMTLSRQTPSTWKDVWLLTATPTAPEPTSRDTEATLTSILPAGEKPEEGEPVAHVEAEPDFTARDKEKEATTRPRETTQLPVTQQASTAARATTAQASVTSHPHGDVQPGLHETLAPTAPGQPDHQPPSVEDGGTSVIKEVVEDETTNQLPAGEGSGEQDFTFETSGENTAVAGVEPDLRNQSPVDEGATGASQGLLDRKEVLGGVIAGGLVGLIYAVFLVAFMLYRMKKKDEGSYSLEEPKQANGGAYQKPTKQEEFYA [F269Y;C272F]

# Variants of: B6
# Settings: with sdc3_rat Sdc3, P33671
row,effect of a mutation on the interaction,Variant
1,decreasing interaction strength,MAPVCLFAPLLLLLLGGFPVAPGESIRETEVIDPQDLLEGRYFSGALPDDEDAGGLEQDSDFELSGSGDLDDTEEPRTFPEVISPLVPLDNHIPENAQPGIRVPSEPKELEENEVIPKRVPSDVGDDDVSNKVSMSSTSQGSNIFERTEVLAALIVGGVVGILYAVFLILLLVYRMKKKDEGSYDLGKKPIYKKAPTNEFYA [F164Y]

# Variants of: B7
# Settings: with sdc1_rat Sdc1, P26260
row,effect of a mutation on the interaction,Variant
1,with no effect,MQRAWILLTLGLMACVSAETRAELTSDKDMYLDSSSIEEASGLYPIDDDDYSSASGSGAYEDKGSPDLTTSQLIPRISLTSAAPEVETMTLKTQSITPTQTESPEETDKKEFEISEAEEKQDPAVKSTDVYTEKHSDNLFKRTEVLAAVIAGGVIGFLFAIYLILLLVYRMRKKDEGSYDLGERKPSSAAYQKAPTKEFYA [F162Y]
